Experimental data from patent US9566335.

Tests used:
[1] = target: biotinylated peptide X-…(biotin), X = A; assay: phage ELISA, biotinylated peptide on neutravidin
[2] = target: biotinylated peptide X-…(biotin), X = C; assay: phage ELISA, biotinylated peptide on neutravidin
[3] = target: biotinylated peptide X-…(biotin), X = D; assay: phage ELISA, biotinylated peptide on neutravidin
[4] = target: biotinylated peptide X-…(biotin), X = E; assay: phage ELISA, biotinylated peptide on neutravidin
[5] = target: biotinylated peptide X-…(biotin), X = G; assay: phage ELISA, biotinylated peptide on neutravidin
[6] = target: biotinylated peptide X-…(biotin), X = H; assay: phage ELISA, biotinylated peptide on neutravidin
[7] = target: biotinylated peptide X-…(biotin), X = I; assay: phage ELISA, biotinylated peptide on neutravidin
[8] = target: biotinylated peptide X-…(biotin), X = K; assay: phage ELISA, biotinylated peptide on neutravidin
[9] = target: biotinylated peptide X-…(biotin), X = M; assay: phage ELISA, biotinylated peptide on neutravidin
[10] = target: biotinylated peptide X-…(biotin), X = N; assay: phage ELISA, biotinylated peptide on neutravidin
[11] = target: biotinylated peptide X-…(biotin), X = P; assay: phage ELISA, biotinylated peptide on neutravidin
[12] = target: biotinylated peptide X-…(biotin), X = Q; assay: phage ELISA, biotinylated peptide on neutravidin
[13] = target: biotinylated peptide X-…(biotin), X = R; assay: phage ELISA, biotinylated peptide on neutravidin
[14] = target: biotinylated peptide X-…(biotin), X = S; assay: phage ELISA, biotinylated peptide on neutravidin
[15] = target: biotinylated peptide X-…(biotin), X = T; assay: phage ELISA, biotinylated peptide on neutravidin
[16] = target: biotinylated peptide X-…(biotin), X = V; assay: phage ELISA, biotinylated peptide on neutravidin
[17] = target: biotinylated peptide X-…(biotin), X = A; assay: phage ELISA, biotinylated peptide on neutravidin; phage 10×
[18] = target: biotinylated peptide X-…(biotin), X = C; assay: as above
[19] = target: biotinylated peptide X-…(biotin), X = D; assay: as above
[20] = target: biotinylated peptide X-…(biotin), X = E; assay: as above
[21] = target: biotinylated peptide X-…(biotin), X = G; assay: as above
[22] = target: biotinylated peptide X-…(biotin), X = H; assay: as above
[23] = target: biotinylated peptide X-…(biotin), X = I; assay: as above
[24] = target: biotinylated peptide X-…(biotin), X = K; assay: as above
[25] = target: biotinylated peptide X-…(biotin), X = M; assay: as above
[26] = target: biotinylated peptide X-…(biotin), X = N; assay: as above
[27] = target: biotinylated peptide X-…(biotin), X = P; assay: as above
[28] = target: biotinylated peptide X-…(biotin), X = Q; assay: as above
[29] = target: biotinylated peptide X-…(biotin), X = R; assay: as above
[30] = target: biotinylated peptide X-…(biotin), X = S; assay: as above
[31] = target: biotinylated peptide X-…(biotin), X = T; assay: as above
[32] = target: biotinylated peptide X-…(biotin), X = V; assay: as above

B1: Phage displayed wild-type E. coli ClpS (truncated wildtype ClpS polypeptide, FLAG-tagged, fused to phage coat protein p3) (protein)
chain: KPPSMYKVILVNDDYTPMEFVIDVLQKFFSYDVERATQLMLAVHYQGKAICGVFTAEVAETKVAMVNKYARENEHPLLCTLEKA
Which phage ELISA signal (A450) [1] does the source give for B1 here?
The phage ELISA signal (A450) was -0.29.

And the phage ELISA signal (A450) [2]?
The phage ELISA signal (A450) was -0.23.

What about the phage ELISA signal (A450) [3] of the same binder?
Its phage ELISA signal (A450) is -0.29.

And the phage ELISA signal (A450) [4]?
The phage ELISA signal (A450) was -0.26.

What about the phage ELISA signal (A450) [5] of the same binder?
Its phage ELISA signal (A450) is -0.04.

What about the phage ELISA signal (A450) [6] of the same binder?
Its phage ELISA signal (A450) is -0.03.

What about the phage ELISA signal (A450) [7] of the same binder?
The phage ELISA signal (A450) was -0.016.

And the phage ELISA signal (A450) [8]?
The phage ELISA signal (A450) was 0.05.

And the phage ELISA signal (A450) [9]?
The phage ELISA signal (A450) was -0.11.

What about the phage ELISA signal (A450) [10] of the same binder?
Its phage ELISA signal (A450) is -0.05.

What about the phage ELISA signal (A450) [11] of the same binder?
Its phage ELISA signal (A450) is -0.07.

What about the phage ELISA signal (A450) [12] of the same binder?
The phage ELISA signal (A450) was -0.18.

What about the phage ELISA signal (A450) [13] of the same binder?
Its phage ELISA signal (A450) is 0.13.

And the phage ELISA signal (A450) [14]?
The phage ELISA signal (A450) was -0.01.

And the phage ELISA signal (A450) [15]?
The phage ELISA signal (A450) was 0.01.

And the phage ELISA signal (A450) [16]?
Its phage ELISA signal (A450) is -0.09.

What about the phage ELISA signal (A450) [17] of the same binder?
Its phage ELISA signal (A450) is -0.29.

What about the phage ELISA signal (A450) [18] of the same binder?
The phage ELISA signal (A450) was -0.23.

And the phage ELISA signal (A450) [19]?
The phage ELISA signal (A450) was -0.29.

What about the phage ELISA signal (A450) [20] of the same binder?
The phage ELISA signal (A450) was -0.26.

What about the phage ELISA signal (A450) [21] of the same binder?
Its phage ELISA signal (A450) is -0.04.

What about the phage ELISA signal (A450) [22] of the same binder?
Its phage ELISA signal (A450) is -0.03.

And the phage ELISA signal (A450) [23]?
Its phage ELISA signal (A450) is -0.16.

What about the phage ELISA signal (A450) [24] of the same binder?
The phage ELISA signal (A450) was 0.05.

And the phage ELISA signal (A450) [25]?
Its phage ELISA signal (A450) is -0.11.

What about the phage ELISA signal (A450) [26] of the same binder?
The phage ELISA signal (A450) was -0.05.

And the phage ELISA signal (A450) [27]?
The phage ELISA signal (A450) was -0.07.

And the phage ELISA signal (A450) [28]?
The phage ELISA signal (A450) was -0.18.

What about the phage ELISA signal (A450) [29] of the same binder?
Its phage ELISA signal (A450) is 0.13.

What about the phage ELISA signal (A450) [30] of the same binder?
The phage ELISA signal (A450) was -0.01.

And the phage ELISA signal (A450) [31]?
Its phage ELISA signal (A450) is 0.01.

What about the phage ELISA signal (A450) [32] of the same binder?
The phage ELISA signal (A450) was -0.09.
